Legend:
Experiment in all cases: SPR; KD relative to WT C2;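 also: biacore SPR at 37 °C, anti-C2 mAbs captured on an anti-human IgG chip, alanine or serine C2 surface mutants tested, KD from 1:1 fit compared with wild-type C2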
[1] = biological target: T1, human C2 D269A (human, UniProt P06681 21-752)
T1 sequence: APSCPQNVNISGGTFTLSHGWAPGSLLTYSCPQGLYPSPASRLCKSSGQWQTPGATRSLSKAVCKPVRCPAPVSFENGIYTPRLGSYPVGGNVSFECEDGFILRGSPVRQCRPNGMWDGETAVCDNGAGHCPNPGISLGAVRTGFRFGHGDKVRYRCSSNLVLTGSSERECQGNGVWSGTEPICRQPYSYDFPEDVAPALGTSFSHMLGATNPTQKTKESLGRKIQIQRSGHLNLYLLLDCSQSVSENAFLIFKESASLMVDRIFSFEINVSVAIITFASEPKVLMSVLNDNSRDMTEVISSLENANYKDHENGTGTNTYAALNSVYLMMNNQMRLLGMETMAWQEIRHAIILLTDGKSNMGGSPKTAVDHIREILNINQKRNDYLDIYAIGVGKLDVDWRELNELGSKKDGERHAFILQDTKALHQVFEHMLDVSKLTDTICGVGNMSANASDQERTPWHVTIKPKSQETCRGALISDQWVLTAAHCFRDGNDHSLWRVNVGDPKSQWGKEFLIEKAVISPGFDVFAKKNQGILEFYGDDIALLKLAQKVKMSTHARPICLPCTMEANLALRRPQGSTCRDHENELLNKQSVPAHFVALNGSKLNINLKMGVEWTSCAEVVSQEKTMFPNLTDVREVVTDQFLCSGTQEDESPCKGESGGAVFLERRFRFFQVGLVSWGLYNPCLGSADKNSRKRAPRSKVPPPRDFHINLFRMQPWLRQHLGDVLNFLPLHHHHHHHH

[2] = biological target: T2, human C2 V418A (human, UniProt P06681 21-752)
T2 sequence: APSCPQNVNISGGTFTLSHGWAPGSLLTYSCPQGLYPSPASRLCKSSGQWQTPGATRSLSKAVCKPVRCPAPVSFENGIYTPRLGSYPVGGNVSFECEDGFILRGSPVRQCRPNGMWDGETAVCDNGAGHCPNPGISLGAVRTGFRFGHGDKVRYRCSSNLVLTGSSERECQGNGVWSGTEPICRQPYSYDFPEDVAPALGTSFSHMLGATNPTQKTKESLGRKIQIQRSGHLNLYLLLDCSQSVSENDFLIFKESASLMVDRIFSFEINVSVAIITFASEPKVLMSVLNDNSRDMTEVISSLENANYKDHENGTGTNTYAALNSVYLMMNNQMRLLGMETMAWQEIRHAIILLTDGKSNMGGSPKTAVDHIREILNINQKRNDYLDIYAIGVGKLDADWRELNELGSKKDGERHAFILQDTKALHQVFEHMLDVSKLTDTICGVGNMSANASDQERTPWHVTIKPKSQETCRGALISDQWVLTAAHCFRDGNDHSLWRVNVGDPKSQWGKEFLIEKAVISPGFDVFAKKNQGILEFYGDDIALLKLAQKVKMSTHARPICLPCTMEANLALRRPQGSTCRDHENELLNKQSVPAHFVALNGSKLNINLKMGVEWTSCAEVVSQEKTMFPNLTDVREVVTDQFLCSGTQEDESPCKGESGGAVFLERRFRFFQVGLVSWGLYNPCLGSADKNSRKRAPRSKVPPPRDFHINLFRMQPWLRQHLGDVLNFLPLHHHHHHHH

[3] = biological target: T3, human C2 E476A (human, UniProt P06681 21-752)
T3 sequence: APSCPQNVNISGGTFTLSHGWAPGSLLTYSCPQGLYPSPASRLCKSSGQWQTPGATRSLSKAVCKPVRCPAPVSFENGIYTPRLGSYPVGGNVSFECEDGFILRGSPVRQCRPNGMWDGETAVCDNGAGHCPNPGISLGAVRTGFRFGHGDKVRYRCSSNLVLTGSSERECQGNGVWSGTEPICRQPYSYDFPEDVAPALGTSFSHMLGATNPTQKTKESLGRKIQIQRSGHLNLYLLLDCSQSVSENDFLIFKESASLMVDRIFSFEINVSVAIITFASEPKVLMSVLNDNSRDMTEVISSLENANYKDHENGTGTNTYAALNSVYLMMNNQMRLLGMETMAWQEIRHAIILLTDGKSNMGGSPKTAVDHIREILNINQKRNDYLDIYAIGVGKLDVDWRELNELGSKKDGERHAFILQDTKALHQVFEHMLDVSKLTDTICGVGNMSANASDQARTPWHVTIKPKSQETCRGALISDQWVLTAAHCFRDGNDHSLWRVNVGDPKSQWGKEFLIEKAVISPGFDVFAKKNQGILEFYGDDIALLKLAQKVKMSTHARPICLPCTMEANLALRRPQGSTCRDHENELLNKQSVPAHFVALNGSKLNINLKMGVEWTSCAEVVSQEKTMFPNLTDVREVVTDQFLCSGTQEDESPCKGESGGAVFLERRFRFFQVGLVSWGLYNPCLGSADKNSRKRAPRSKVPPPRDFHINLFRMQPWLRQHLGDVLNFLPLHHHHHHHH

[4] = biological target: T4, human C2 H451A (human, UniProt P06681 21-752)
T4 sequence: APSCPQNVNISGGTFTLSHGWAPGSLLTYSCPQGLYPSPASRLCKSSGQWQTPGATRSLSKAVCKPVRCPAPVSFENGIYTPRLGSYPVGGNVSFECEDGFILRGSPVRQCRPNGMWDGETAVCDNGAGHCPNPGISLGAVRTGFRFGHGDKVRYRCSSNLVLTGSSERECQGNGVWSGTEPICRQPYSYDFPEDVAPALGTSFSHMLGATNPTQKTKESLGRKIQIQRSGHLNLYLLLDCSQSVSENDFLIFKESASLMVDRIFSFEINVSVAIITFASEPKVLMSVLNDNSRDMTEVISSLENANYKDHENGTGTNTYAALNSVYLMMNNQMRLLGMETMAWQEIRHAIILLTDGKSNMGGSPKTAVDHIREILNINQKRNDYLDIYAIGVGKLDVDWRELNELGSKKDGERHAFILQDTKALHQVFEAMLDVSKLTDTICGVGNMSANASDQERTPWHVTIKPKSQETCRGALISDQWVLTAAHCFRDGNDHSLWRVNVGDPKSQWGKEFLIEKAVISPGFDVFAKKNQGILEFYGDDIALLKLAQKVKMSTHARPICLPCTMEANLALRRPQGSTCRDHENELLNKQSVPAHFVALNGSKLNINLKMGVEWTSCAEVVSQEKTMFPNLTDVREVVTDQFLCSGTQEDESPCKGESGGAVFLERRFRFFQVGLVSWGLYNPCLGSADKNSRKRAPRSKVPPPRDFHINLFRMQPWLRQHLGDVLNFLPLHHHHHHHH

B1: RF16-214 (antibody, V domains shown)
VH: EVQLLESGGGLVQPGGSLRLSCAASGFTFSWYQMMWVRQAPGKGLEWVSRIYPSGGGTAYADSVKGRFTISRDNSKNTLYLQMNSLRAEDTAVYYCARDAGYGDNWGQGTLVTVSS
VL: QSALTQPPSVSVSPGQTASITCSGDKLGEKYASWYQQKAGQSPVMVIYQDRKRPSGIPERFSGSNSGNTATLTISGTQAMDEADYYCQAWDTRAVVFGGGTKLTVLG
With B1 the Fold diff [1] was 1 fold, the Fold diff [2] was 1 fold and the Fold diff [3] was 2 fold. It also gave a Fold diff [4] of 4 fold.

— patent publication US20220332804A1 (CSL INNOVATION, published 2022)
